Positions of bridges follow the written chain, without caps; N, C: chain ends. No end group written: not given here.
Assays:
human plasma IgG3 [1] = molecular target: T1, human plasma IgG3 (human, UniProt P01860-1 1-377); test: Oregon Green peptide, pH 4.0 - salt
T1 construct: Plasma-derived IgG isoform, bought
Experimental: (§1) Binding studies were performed using human plasma IgG isoforms: IgG1, IgG2, IgG3, and IgG4, obtained from Calbiochem.
(§2) Binding studies were carried out at either pH 4.0, 7.5, or 9.5, with or without salt in the following buffers: […]

human plasma IgG3 [2] = molecular target: T1, human plasma IgG3; test: Oregon Green peptide, pH 4.0 + salt (500 mM NaCl)
Experimental: as §1, §2

rat serum albumin [3] = molecular target: T2, rat serum albumin (Rat, UniProt P02770 25-608); test: labeled peptide, KD; PBS, pH 7.4, 0.14 M NaCl
human serum albumin [4] = molecular target: T3, human serum albumin (human, UniProt P02768 25-609); test: labeled peptide, KD; PBS, pH 7.4, 0.14 M NaCl
T3 construct: also called HSA

Rhesus serum albumin [5] = molecular target: T4, Rhesus serum albumin (Rhesus, UniProt Q28522 17-600); test: labeled peptide, KD; PBS, pH 7.4, 0.14 M NaCl
goat serum albumin [6] = molecular target: T5, goat serum albumin (Goat); test: labeled peptide, KD; PBS, pH 7.4, 0.14 M NaCl
T5 construct: also called GSA
T5 sequence (P85295 whole entry, looked up): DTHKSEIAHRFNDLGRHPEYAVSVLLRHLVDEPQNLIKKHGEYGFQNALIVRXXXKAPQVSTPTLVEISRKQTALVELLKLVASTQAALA

rat serum albumin [7] = molecular target: T2, rat serum albumin; test: labeled peptide, KD; 3 mM phosphate, pH 6.2, 0 M NaCl
human serum albumin [8] = molecular target: T3, human serum albumin; test: as above
Rhesus serum albumin [9] = molecular target: T4, Rhesus serum albumin; test: as above
goat serum albumin [10] = molecular target: T5, goat serum albumin; test: as above
bovine serum albumin = molecular target: T6, bovine serum albumin (Bovine, UniProt P02769 25-607); test: labeled peptide, KD; 3 mM phosphate, pH 6.2, 0 M NaCl; labeled peptide in solution; 3 mM phosphate, pH 6.2, 0 M NaCl
T6 construct: also called BSA

pig serum albumin [11] = molecular target: T7, pig serum albumin (Pig, UniProt P08835 25-607); test: as above
human plasma IgG4 [12] = molecular target: T8, human plasma IgG4 (human, UniProt P01861-1 1-327 = IgG part); test: Oregon Green peptide, pH 7.5 - salt
T8 construct: Plasma-derived IgG isoform, bought
Experimental: as §1, §2

human plasma IgG3 [13] = molecular target: T1, human plasma IgG3; test: Oregon Green peptide, TBS pH 7.5
Experimental: as §1, §2

human plasma IgG1 [14] = molecular target: T9, human plasma IgG1 (human, UniProt P01857-1 1-330 = IgG part); test: Oregon Green peptide, pH 4.0 - salt
T9 construct: Plasma-derived IgG isoform, bought
Experimental: as §1, §2

human plasma IgG4 [15] = molecular target: T8, human plasma IgG4; test: Oregon Green peptide, pH 4.0 - salt
Experimental: as §1, §2

human plasma IgG1 [16] = molecular target: T9, human plasma IgG1; test: Oregon Green peptide, pH 7.5 - salt
Experimental: as §1, §2

human plasma IgG2 [17] = molecular target: T10, human plasma IgG2 (human, UniProt P01859-1 1-326 = IgG part); test: Oregon Green peptide, pH 9.5 - salt
T10 construct: Plasma-derived IgG isoform, bought
Experimental: as §1, §2

human plasma IgG3 [18] = molecular target: T1, human plasma IgG3; test: Oregon Green peptide, pH 9.5 - salt
Experimental: as §1, §2

human plasma IgG3 [19] = molecular target: T1, human plasma IgG3; test: Oregon Green peptide, pH 7.5 + salt (500 mM NaCl)
Experimental: as §1, §2

human plasma IgG3 [20] = molecular target: T1, human plasma IgG3; test: Oregon Green peptide, pH 9.5 + salt (500 mM NaCl)
Experimental: as §1, §2

human plasma IgG2 [21] = molecular target: T10, human plasma IgG2; test: Oregon Green peptide, pH 4.0 - salt
Experimental: as §1, §2

human plasma IgG2 [22] = molecular target: T10, human plasma IgG2; test: Oregon Green peptide, pH 7.5 - salt
Experimental: as §1, §2

human plasma IgG1 [23] = molecular target: T9, human plasma IgG1; test: Oregon Green peptide, pH 4.0 + salt (500 mM NaCl)
Experimental: as §1, §2

human plasma IgG2 [24] = molecular target: T10, human plasma IgG2; test: Oregon Green peptide, pH 4.0 + salt (500 mM NaCl)
Experimental: as §1, §2

human plasma IgG2 [25] = molecular target: T10, human plasma IgG2; test: Oregon Green peptide, pH 7.5 + salt (500 mM NaCl); pH 7.5 + salt
Experimental: as §1, §2

pig serum albumin [26] = molecular target: T7, pig serum albumin; test: labeled peptide, KD; 3 mM phosphate, pH 6.2, 0 M NaCl
rabbit serum albumin = rabbit serum albumin (Rabbit, UniProt P49065 25-608); test: as above
Sequence of rabbit serum albumin (P49065 25-608 limits assumed): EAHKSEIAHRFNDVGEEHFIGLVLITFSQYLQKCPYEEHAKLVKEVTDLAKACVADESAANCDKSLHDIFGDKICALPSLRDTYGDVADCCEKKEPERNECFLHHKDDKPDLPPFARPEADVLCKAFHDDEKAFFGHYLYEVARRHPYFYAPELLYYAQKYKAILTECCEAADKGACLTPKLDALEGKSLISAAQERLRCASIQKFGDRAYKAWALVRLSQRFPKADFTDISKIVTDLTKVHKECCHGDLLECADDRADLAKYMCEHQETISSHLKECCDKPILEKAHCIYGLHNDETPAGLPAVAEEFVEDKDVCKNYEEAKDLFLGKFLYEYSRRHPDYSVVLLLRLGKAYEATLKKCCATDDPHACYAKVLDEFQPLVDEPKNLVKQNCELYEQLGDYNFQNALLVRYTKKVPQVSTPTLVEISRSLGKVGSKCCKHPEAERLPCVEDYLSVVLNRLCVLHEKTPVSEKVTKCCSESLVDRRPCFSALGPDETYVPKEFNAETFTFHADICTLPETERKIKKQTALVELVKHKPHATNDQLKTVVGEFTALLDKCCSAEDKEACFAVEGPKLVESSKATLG

T1 sequence (P01860 other isoform, or with tags, fused parts or gaps): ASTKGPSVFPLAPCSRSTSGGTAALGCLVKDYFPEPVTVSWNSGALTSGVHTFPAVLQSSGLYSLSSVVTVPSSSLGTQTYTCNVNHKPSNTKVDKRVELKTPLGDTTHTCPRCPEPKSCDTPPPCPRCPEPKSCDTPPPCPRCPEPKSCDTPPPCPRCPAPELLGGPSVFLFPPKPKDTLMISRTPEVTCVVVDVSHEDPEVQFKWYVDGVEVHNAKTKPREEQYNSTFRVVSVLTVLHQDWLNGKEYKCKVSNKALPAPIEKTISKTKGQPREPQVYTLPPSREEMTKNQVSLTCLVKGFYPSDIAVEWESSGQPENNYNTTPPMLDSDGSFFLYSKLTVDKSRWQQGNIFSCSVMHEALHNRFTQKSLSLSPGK
T8 sequence (P01861 other isoform, or with tags, fused parts or gaps): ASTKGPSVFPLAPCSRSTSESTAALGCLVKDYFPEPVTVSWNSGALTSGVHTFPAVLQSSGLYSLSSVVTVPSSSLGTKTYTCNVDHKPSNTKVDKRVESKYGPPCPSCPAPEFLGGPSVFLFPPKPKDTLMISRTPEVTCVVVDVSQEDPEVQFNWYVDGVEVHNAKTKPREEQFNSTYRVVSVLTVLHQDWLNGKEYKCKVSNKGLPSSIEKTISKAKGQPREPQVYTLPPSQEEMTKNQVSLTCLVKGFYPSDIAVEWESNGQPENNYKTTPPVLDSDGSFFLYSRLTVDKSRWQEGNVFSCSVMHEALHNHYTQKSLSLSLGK
T9 sequence (P01857 other isoform, or with tags, fused parts or gaps): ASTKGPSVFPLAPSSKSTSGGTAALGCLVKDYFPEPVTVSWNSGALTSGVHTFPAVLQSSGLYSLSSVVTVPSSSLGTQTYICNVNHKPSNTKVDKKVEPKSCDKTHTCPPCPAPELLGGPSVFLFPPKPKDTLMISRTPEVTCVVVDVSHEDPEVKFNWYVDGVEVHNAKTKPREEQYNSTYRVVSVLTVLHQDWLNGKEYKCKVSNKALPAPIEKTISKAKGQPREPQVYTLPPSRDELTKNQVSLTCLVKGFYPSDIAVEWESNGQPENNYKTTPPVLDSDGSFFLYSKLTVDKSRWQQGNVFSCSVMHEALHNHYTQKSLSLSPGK
T10 sequence (P01859 other isoform, or with tags, fused parts or gaps): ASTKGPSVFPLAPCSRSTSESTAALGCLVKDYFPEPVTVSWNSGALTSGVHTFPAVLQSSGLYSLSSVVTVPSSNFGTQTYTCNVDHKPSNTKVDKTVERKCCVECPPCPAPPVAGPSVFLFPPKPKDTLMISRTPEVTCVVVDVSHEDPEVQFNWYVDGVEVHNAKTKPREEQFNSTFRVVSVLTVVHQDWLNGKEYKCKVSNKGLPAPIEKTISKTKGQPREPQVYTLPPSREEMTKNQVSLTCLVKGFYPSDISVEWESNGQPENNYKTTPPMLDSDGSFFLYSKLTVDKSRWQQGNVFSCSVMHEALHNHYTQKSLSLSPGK
T7 sequence (P08835 25-607 limits assumed): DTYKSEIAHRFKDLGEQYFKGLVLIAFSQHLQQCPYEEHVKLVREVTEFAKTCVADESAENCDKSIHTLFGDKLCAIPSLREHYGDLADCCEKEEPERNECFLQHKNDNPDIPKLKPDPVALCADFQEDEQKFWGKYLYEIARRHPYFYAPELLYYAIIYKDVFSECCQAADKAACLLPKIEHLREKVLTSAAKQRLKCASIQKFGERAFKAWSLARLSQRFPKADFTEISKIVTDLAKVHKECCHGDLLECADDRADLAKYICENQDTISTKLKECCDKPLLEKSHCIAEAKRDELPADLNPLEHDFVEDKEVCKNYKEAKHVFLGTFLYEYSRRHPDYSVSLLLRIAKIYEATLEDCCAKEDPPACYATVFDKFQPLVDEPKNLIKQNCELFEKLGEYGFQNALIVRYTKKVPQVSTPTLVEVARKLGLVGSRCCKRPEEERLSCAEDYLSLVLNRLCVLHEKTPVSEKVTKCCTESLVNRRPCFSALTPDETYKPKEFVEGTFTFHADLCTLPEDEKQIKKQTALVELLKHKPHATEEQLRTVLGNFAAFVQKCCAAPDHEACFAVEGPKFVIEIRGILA
T3 sequence (P02768 25-609): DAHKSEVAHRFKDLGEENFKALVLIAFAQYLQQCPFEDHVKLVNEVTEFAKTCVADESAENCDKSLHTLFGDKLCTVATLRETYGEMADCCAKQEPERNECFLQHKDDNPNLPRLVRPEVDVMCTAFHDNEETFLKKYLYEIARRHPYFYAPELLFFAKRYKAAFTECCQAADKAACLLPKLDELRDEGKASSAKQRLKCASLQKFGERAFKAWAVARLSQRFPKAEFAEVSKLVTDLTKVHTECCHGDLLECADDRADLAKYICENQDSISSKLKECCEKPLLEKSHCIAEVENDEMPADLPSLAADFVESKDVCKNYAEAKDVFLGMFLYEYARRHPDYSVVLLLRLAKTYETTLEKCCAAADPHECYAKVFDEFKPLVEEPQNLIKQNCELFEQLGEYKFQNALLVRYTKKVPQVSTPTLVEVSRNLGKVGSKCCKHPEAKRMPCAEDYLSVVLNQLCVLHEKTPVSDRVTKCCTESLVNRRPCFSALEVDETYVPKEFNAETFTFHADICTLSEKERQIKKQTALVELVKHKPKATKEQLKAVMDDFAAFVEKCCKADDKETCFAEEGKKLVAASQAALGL
T2 sequence (P02770 25-608 limits assumed): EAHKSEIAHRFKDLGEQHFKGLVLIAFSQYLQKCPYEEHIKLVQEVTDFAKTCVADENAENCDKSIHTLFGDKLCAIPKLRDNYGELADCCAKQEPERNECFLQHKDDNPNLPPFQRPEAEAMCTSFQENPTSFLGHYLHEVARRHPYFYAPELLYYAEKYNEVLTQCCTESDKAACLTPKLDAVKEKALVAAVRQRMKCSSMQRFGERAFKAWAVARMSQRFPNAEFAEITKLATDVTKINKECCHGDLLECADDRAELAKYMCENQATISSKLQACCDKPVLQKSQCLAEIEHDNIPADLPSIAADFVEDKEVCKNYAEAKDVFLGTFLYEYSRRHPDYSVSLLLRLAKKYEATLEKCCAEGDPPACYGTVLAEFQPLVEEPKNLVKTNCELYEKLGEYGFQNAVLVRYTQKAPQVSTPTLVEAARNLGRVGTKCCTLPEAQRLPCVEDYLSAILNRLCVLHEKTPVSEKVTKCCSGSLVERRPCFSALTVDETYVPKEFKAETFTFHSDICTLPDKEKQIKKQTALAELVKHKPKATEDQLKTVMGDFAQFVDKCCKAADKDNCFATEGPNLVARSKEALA
T4 sequence (Q28522 17-600 limits assumed): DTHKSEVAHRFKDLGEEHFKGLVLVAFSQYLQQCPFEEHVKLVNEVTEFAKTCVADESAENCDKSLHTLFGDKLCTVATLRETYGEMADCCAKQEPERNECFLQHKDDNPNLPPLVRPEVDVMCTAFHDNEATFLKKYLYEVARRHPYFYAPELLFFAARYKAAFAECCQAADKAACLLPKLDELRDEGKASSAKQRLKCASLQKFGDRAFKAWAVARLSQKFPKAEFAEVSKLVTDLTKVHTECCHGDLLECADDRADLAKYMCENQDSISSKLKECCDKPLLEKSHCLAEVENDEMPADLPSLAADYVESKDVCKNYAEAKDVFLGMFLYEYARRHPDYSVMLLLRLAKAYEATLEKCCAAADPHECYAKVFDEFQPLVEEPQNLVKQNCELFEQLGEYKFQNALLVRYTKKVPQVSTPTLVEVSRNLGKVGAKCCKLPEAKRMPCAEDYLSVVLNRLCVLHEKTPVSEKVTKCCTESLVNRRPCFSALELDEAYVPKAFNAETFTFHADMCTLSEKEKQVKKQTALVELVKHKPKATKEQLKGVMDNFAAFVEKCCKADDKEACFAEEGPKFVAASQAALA
T6 sequence (P02769 25-607 limits assumed): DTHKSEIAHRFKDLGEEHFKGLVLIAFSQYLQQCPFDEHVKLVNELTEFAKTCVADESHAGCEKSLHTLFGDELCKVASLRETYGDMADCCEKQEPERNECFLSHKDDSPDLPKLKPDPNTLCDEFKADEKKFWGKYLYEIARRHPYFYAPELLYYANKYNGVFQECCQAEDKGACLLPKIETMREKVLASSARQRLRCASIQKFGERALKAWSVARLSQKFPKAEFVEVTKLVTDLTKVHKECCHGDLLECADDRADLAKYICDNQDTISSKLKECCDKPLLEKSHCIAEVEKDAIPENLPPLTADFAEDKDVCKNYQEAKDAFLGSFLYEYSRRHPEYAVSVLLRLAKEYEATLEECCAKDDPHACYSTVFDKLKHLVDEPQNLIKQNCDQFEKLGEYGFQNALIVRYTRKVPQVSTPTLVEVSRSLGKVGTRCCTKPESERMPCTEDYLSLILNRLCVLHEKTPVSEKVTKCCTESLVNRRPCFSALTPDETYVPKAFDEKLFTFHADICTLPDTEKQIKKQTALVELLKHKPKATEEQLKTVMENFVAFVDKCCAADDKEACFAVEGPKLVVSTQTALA

B1: DX413 (peptide)
peptide: AGYWYCWFPDRPECPLYPGPEGGGK
modifications: N-terminal acetyl (Ac-); C-terminal amide (-NH2); Oregon Green labeled
notes: Synthesised by BACHEM, Oregon Green labeled, HPLC purified
Kd (human plasma IgG3 [1]): 840 nM
Kd (human plasma IgG3 [2]): 1100 nM

B2: DX-321 (peptide)
peptide: AEGTGDRNMCKFSWIRSPAFCARADPE
modifications: not fully specified (bridges); cysteine pairing not given here; also: label not named, exact tested form not given here, immobilised via C-terminal lysine to Sepharose
Kd (rat serum albumin [3]): 117000 nM
Kd (human serum albumin [4]): 84000 nM
Kd (Rhesus serum albumin [5]): 82000 nM
Kd (goat serum albumin [6]): 83000 nM
Kd (rat serum albumin [7]): 23000 nM
Kd (human serum albumin [8]): 900 nM
Kd (Rhesus serum albumin [9]): 38000 nM
Kd (goat serum albumin [10]): 95000 nM
Kd (bovine serum albumin): 21000 nM
Kd (pig serum albumin [11]): 21000 nM

B3: DX395 (peptide)
peptide: AGKYWCNLWGVCPANPGPEGGGK
modifications: N-terminal acetyl (Ac-); C-terminal amide (-NH2); Oregon Green labeled
notes: as for B1
Kd (human plasma IgG3 [1]): 1000 nM
Kd (human plasma IgG4 [12]): > 10000 nM

B4: DX398 (peptide)
peptide: Ac-AGAATCSTSYWYYQWFCTDSPGPEGGGK-NH2
modifications: cysteine pairing not given here; also: Oregon Green labeled, place not given here
notes: as for B1
Kd (human plasma IgG3 [13]): > 10000 nM
Kd (human plasma IgG1 [14]): 2400 nM
Kd (human plasma IgG3 [1]): 20 nM
Kd (human plasma IgG4 [15]): 1600 nM
Kd (human plasma IgG1 [16]): 4600 nM
Kd (human plasma IgG4 [12]): 3500 nM
Kd (human plasma IgG2 [17]): > 10000 nM
Kd (human plasma IgG3 [18]): > 10000 nM
Kd (human plasma IgG3 [2]): 40 nM
Kd (human plasma IgG3 [19]): 300 nM
Kd (human plasma IgG3 [20]): 300 nM

B5: DX404 (peptide)
peptide: AGTYWCTFWELPCDPAPGPEGGGK
modifications: N-terminal acetyl (Ac-); C-terminal amide (-NH2); Oregon Green labeled
notes: as for B1
Kd (human plasma IgG1 [14]): 1500 nM
Kd (human plasma IgG2 [21]): 1000 nM
Kd (human plasma IgG3 [1]): 10 nM
Kd (human plasma IgG1 [16]): 8800 nM
Kd (human plasma IgG2 [22]): 8600 nM
Kd (human plasma IgG1 [23]): 2000 nM
Kd (human plasma IgG2 [24]): 2000 nM
Kd (human plasma IgG3 [2]): 200 nM

B6: DX389 (peptide)
peptide: AGPHNCDDHYWYCKWFPGPEGGGK
modifications: N-terminal acetyl (Ac-); C-terminal amide (-NH2); Oregon Green labeled
notes: as for B1
Kd (human plasma IgG3 [1]): 2500 nM
Kd (human plasma IgG3 [2]): 1800 nM
Kd (human plasma IgG3 [19]): > 10000 nM
Kd (human plasma IgG2 [25]): > 10000 nM

B7: DX-236 (peptide)
peptide: AEGTGDFWFCDRIAWYPQHLCEFLDPEGGGK
modifications: disulfide 10-21 (inferred); not fully specified; also: labeled, label not named, coupled via C-terminal lysine to NHS-Sepharose
notes: Cyclic (disulfide) phage-display peptide
Kd (goat serum albumin [6]): 23000 nM
Kd (goat serum albumin [10]): 1600 nM
Kd (pig serum albumin [26]): 500 nM
Kd (rabbit serum albumin): 500 nM

B8: DX392 (peptide)
peptide: AGSYWCKIWDVCPQSPGPEGGGK
modifications: N-terminal acetyl (Ac-); C-terminal amide (-NH2); Oregon Green labeled
notes: as for B1
Kd (human plasma IgG3 [1]): 320 nM
Kd (human plasma IgG3 [2]): 600 nM
Kd (human plasma IgG3 [19]): > 10000 nM
Kd (human plasma IgG3 [20]): > 10000 nM

From US20040009534A1 (DYAX, published 2004)
